Among the data in publication PMC2112520 are percent of added 125I-PDGF bound values, retold here.

The experiment deals with 125I-PDGF plasma-binding protein of human plasma (about 280,000 mol wt) (human (endogenous in plasma)).

In turn, “125I-labelled human platelet-derived growth factor II (from UniProt P04085 87-211; P01127 82-190) (ligand)” gave a percent of added 125I-PDGF bound of 10 to 20%.
